Test results as given in article PMC3346141.

Target: TssL-His expressed in A. tumefaciens ΔtssMΔtssL (pTrc-TssL-His) (Agrobacterium tumefaciens)
Assay: pull-down

Hcp, endogenous in A. tumefaciens (natural protein)
Hcp signal relative to TssL-His in the bound fraction, H2O-treated cells: 0.21
